Laboratory results published in patent US20110020842.

Tested on: T1, peptide TRPM7p (Ac-RKKYRIVWKSIFRRFL)
T1 sequence: RKKYRIVWKSIFRRFL

Substance: TRPM7 kinase
- fold increase in activity as compared to peptide MH-U: 30 to 35 fold increase in activity
- phosphorylation at a single substrate concentration (100 µM): both peptides are efficiently phosphorylated by their respective kinases
